Test results as given in patent WO2015116852A1 (dated 2015).
Changes are numbered by the printed parent chain.

T1: Recombinant human monomeric IL-6R protein (human, UniProt P08887 20-358)
T1 construct: also called monomeric hIL-6R; human receptor
T1 sequence: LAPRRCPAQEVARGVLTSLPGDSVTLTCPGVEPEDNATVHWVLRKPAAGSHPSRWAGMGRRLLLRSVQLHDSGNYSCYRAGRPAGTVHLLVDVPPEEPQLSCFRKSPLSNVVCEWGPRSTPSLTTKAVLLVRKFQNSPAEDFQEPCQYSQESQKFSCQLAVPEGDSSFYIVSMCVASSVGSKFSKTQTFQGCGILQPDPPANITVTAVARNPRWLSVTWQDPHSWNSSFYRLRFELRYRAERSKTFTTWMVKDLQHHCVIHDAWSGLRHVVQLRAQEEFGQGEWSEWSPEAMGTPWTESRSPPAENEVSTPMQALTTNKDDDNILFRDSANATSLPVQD

T2: Recombinant monkey monomeric IL-6R protein (Macaca fascicularis, extracellular domain) (Macaca fascicularis, UniProt P08887 21-330 (human entry))
T2 construct: also called monkey IL-6R; monkey receptor
T2 chain: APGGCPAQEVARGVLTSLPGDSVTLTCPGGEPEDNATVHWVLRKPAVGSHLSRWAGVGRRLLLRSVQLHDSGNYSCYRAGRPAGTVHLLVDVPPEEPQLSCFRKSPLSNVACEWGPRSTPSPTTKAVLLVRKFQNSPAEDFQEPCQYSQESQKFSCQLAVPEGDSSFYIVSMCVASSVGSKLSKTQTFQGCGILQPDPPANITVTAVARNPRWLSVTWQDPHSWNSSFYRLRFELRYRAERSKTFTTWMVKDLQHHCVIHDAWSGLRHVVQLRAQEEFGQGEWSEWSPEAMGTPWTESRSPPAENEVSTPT

T3: hIL-6R recombinant protein (human, UniProt P08887 20-358)
T3 construct: also called hlL-6R recombinant protein; human IL-6R
T3 sequence: T1 sequence

B1: VV1G4-7 (antibody, V domains shown)
VH: QVQLVQSGAEVKEPGASVKVSCKASGYTFTSYDIIWVRQATGQGLEWMGWMNPNSGNTGYTQNLQGRVTLTRNTSITTVYMELSSLSSEDTAVYYCARDYSSHYYGLDVWGQGTTVTVSS
VL: DIQLTQSPSFLSTSIGDRVTITCWASQDISNYLAWYQQKPGKAPKLLIFVASTLQSGVPSRFSGSGSGTEFTLTISSLQPEDFATYYCQQFNSYPLTFGGGTKVEIK
notes: also called W1 G4; W1 G4-7
B2: VQ8A9-6 (antibody, V domains shown)
VH: EVQLVESGGNLVQPGRSLRLSCAASGFIFDDYAMHWVRQAPGKGLEWVSGISWNSGSIGYADSVKGRFTISRDNAKNSLYLQMNSLRAEDTALYYCAKDGGSSWLPFVYYYGMDVWGQGTTVTVSS
VL: EIVMTQSPATLSVSPGERATLSCRASQSISSNFAWYQQKPGQAPRLLIYGASTRATGIPARFSGSGSGTDFTLTISSLQSEDFAVYYCQQYSSWPPYTFGQGTKLEIK
B3: VQ8F11-21 (antibody, V domains shown)
VH: EVQLVESGGGLVQPGRSLRLSCAASRFTFDDYAMHWVRQAPGKGLEWVSGISWNSGRIGYADSVKGRFTISRDNAENSLFLQMNGLRAEDTALYYCAKGRDSFDIWGQGTMVTVSS
VL: DIQMTQSPSSVSASVGDRVTITCRASQGISSWLAWYQQKPGKAPKLLIYGASSLESGVPSRFSGSGSGTDFTLTISSLQPEDFASYYCQQANSFPYTFGQGTKLEIK
notes: also called mAb1; sarilumab
B4: VV6A9-5 (antibody, V domains shown)
VH: B3 VH with R26G, M34L, I51V, S55G, E76K, G85S, A88V, S102A, M111L
VL: B3 VL with G50A, E55Q, S85T, Q90H, N92Y
notes: also called W6A9-5
B5: VV6F12-11 (antibody, V domains shown)
VH: B1 VH with V20I, N57D, T58R, N73D, T77S, S87R, S102N
VL: B1 VL with T13A, I15V, K107R
B6: VV9A6-11 (antibody, V domains shown)
VH: QVQLVQSGAEVKKPGASVKVSCKASGYTFTSYGISWVRQAPGQGLEWMGWISAYNDDTNYAQKFQGRVTMTTDTSTSTAYMELRSLRSDDTAVYYCAREAQLVLYYYYGMDVWGQGTTVTVSS
VL: EIVLTQSPATLSLSPGERATLSCRASQSVSSFLAWNQQKPGQAPRLLIYDASNRATGIPARFSGSGSGTDFTLTISSLEPEDFAVYYCQQRSNWPYIFGQGTKLEIK
notes: also called W9A6
B7: VV3D8-4 (antibody, V domains shown)
VH: B3 VH with R26G, M34L, E76K, G85S, S102A, M111L
VL: B3 VL with G50A, E55Q, S85T
notes: also called W3D8
B8: VV6C10-3 (antibody, V domains shown)
VH: QVQLVQSGAEVKKPGASVKVSCKASGFNFFHYGITWVRQAPGQGLEWMGWISTYNGDTIYAQKVQGRVTMTTDTATSTAYMELRSLRSDDTAVYYCARSEQQVDYYFYGMDVWGQGTTVTVSS
VL: EIVLTQSPATLSLSPGERATLSCRASQSVSSYLAWYQQKPGQAPRLLIYDASNRATGIPARFSGSGSGTDFTLTISSLEPEDFAFYYCQQRNNRPPFTFGPGTKVDVR
notes: also called W6C10-3

Target: T1, Recombinant human monomeric IL-6R …
Test: BIAcore, antibody captured on anti-mouse Fc, monomeric receptor injected

Kd	Binder
0.241 nM	B1

Target: T2, Recombinant monkey monomeric IL-6R …
Test: as above

binding result	Binder
binds	B2
no binding (tested: 1.25 - 40 nM)	B1
binds	B3
binds	B4

Target: T3, hIL-6R recombinant protein
Test: competition ELISA on plate-coated hIL-6R, competitor control antibody; similar SPR experiment

binding result	Binder
binds	B2
binds	B5
binds	B6
binds	B7
binds	B3
binds	B4
binds	B8
